# Target: ccnd1_human CCND1 (UniProt P24385)
# Sequence (P24385 whole entry): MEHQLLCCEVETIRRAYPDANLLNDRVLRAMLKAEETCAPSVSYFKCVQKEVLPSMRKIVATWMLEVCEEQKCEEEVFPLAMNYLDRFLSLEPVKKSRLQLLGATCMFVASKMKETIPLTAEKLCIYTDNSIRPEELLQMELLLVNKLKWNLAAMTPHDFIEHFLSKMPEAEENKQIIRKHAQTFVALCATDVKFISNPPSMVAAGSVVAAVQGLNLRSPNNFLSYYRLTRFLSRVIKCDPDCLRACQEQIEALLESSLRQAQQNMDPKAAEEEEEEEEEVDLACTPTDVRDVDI
substance,measurement,value
"Nucleoprotein (Human SARS coronavirus), P59595 S207A;P208A;A209L;R210G",effect of a mutation on the interaction,decreasing interaction strength

# Reference: IntAct's records for PubMed 16431923
